Assay results: patent US20250382354A1

How the values were obtained:
[1] = target: CRCoV-240/05 HR2 peptide (CRCoV-240/05); assay: peptide ELISA
[2] = target: HKU24 HR2 peptide (HKU24); assay: peptide ELISA
HKU4 HR2 peptide (HKU4) = HKU4 HR2 peptide (HKU4) (UniProt A3EX94); assay: peptide ELISA
HKU5 HR2 peptide (HKU5) = HKU5 HR2 peptide (HKU5) (UniProt A3EXD0); assay: peptide ELISA
MHV HR2 peptide (MHV) = assay: peptide ELISA
[3] = target: SARS-CoV-2 HR2 peptide (SARS-CoV-2) (UniProt P0DTC2); assay: peptide ELISA
MERS S ectodomain (MERS) = assay: ELISA on coated S
[4] = target: C-terminally truncated SARS-CoV-2 S protein (pSARS-CoV2-Strunc), ancestral (SARS-CoV-2) (UniProt P0DTC2); assay: cell-based or functional assay

S2P6 (antibody) gave an EC50 [1] of 0.0189 µg/mL, an EC50 [2] of 0.0101 µg/mL and an EC50 (HKU4 HR2 peptide (HKU4)) of 0.00975 µg/mL. For the same substance, the EC50 (HKU5 HR2 peptide (HKU5)) was 0.0345 µg/mL, the EC50 (MHV HR2 peptide (MHV)) was 0.0215 µg/mL and the EC50 [3] was 0.0166 µg/mL. It also gave an EC50 (MERS S ectodomain (MERS)) of 0.066 µg/mL and an Ancestral Pseudovirus IC50 (on cells with [not given]) [4] of 23.2 µg/mL.
